The supplement of paper PMC10567573

B1: TRIM43 (parent)
chain: FCDMDKSLLCLLCSNSQEHGAHKH
B2: C10orf62 (parent)
chain: TSECPSDKDKSPESHKAKNESWIK

Variants of: B1
Assay: protein stability index of a GFP-peptide fusion (GPS, HEK-293T) (PSI 1-6); higher = more stable
Conditions: c terminus: a fixed tail appended
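Note: lentivirally expressed fusions sorted by FACS into six bins by GFP to DsRed ratio, PSI derived from sequencing read proportions per bin multiplied by bin number.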

Protein stability index of substitutions, site by site:
D5: P 2.29 | F 3.03 | H 3.33 | T 2.34 | N 1.8 | E 1.92 | Y 2.18 | R 1.74 | G 2.33 | I 3.01 | W 3.29 | C 2.02 | L 2.69 | Q 1.98 | S 1.79 | M 2.97 | A 2.67 | K 2.22 | V 2.74
K6: F 2.24 | W 2.04 | C 1.95 | Y 2.17 | P 2.12 | H 2.09 | R 1.56 | A 2.06 | Q 2.38 | D 2.96 | T 1.94 | G 2.18 | L 1.97 | S 2.17 | I 2.04 | V 1.74 | E 2.29 | M 2.21 | N 2.32
M4: Y 2.07 | D 2.86 | Q 1.88 | P 2 | L 1.98 | V 2.11 | N 1.85 | C 3.14 | H 3.6 | S 2.19 | I 1.96 | K 1.7 | G 1.96 | W 2.13 | E 2.58 | T 1.64 | R 2.16 | F 2.04 | A 2.07
D3: M 2.54 | G 1.99 | P 1.67 | H 2.35 | N 1.75 | L 1.93 | E 2.09 | F 2 | R 1.99 | A 2.15 | Y 2.48 | V 2.76 | W 1.8 | T 1.82 | Q 2.07 | C 2.26 | I 1.94 | K 2.35 | S 1.99
L9: Y 1.46 | S 1.88 | K 2.61 | W 1.55 | Q 2.68 | M 1.92 | T 2.29 | C 2.36 | I 1.91 | V 2.16 | E 2.99 | G 1.64 | D 2.78 | N 2.52 | A 1.99 | P 2.84 | F 1.89 | H 1.93 | R 2.08
F1: W 2.45 | C 3.54 | V 3.25 | E 4.17 | N 3.57 | S 3.72 | P 3.6 | A 3.33 | R 3.57 | T 3.21 | G 3.49 | I 2.81 | K 3.56 | Y 1.88 | M 3.41 | D 3.56 | L 3.21 | H 3.64 | Q 3.72
S7: V 1.79 | H 2.22 | D 2.48 | C 2.26 | W 1.79 | N 2.22 | F 2.72 | T 2.04 | G 1.92 | I 1.84 | Y 2.1 | L 1.93 | E 2.12 | Q 2.54 | K 1.92 | R 1.65 | A 1.77 | M 2.23 | P 2.62
L11: A 2.21 | V 1.63 | F 2.04 | K 2.2 | G 1.93 | H 2.04 | I 2.25 | N 2.07 | C 1.44 | R 2.19 | Q 2.36 | M 1.86 | P 1.83 | S 1.8 | T 2.51 | D 2.75 | E 2.93
C2: R 2.84 | E 3.4 | N 2.58 | S 2.51 | L 2.21 | W 2.38 | P 2.76 | D 3.65 | H 2.22 | G 1.77 | M 2.31 | K 3.4 | F 2.23 | Q 2.43 | Y 2.9 | I 1.8 | T 1.84 | A 1.54 | V 1.86
L8: G 2.3 | E 3.8 | P 2.51 | K 2.86 | V 2.72 | F 2.5 | Y 2.03 | N 2.81 | I 1.96 | R 2.71 | C 2.64 | M 2.31 | D 3.41 | A 2.43 | T 2.32 | W 2.3 | Q 2.82 | S 3.1 | H 2.54
C10: L 2.14 | A 2.23 | H 2.03 | Y 2.65 | K 2.04 | P 2.3 | E 2.23 | V 1.86 | W 2.57 | Q 1.86 | M 2.15 | I 2.06 | D 2.18 | N 1.83 | G 1.64 | T 1.72 | F 2.58 | R 1.7 | S 1.59

Variants of: B2
Assay: as above
Conditions: c terminus: a fixed tail appended

Protein stability index: each site, then its substitutions
S2: Y 3.47 | G 3.26 | L 3.24 | Q 3.85 | M 3.17 | D 3.7 | F 3.12
A17: Q 3.64 | M 2.93 | K 2.93 | H 3.29 | G 3.27 | Y 3.5 | E 3.88 | I 4.17 | W 3.5 | P 3.07
C4: W 2.58
K10: N 3.73 | R 2.81 | P 3.3 | C 3.95 | Y 2.94 | I 3.25
H15: A 4.12 | E 3.84 | M 2.83
K24: A 2.9 | F 3.37 | P 4.73 | E 2.15 | H 3.56 | T 3.18
E3: K 2.92 | D 2.73 | T 3.27 | I 2.14 | W 2.63 | L 3.5 | H 2.84 | V 2.87 | S 3.34
P5: W 3.04 | H 3.75 | M 3.08 | D 3.84 | K 3.24 | A 3.72 | F 3.28 | V 4.14
W22: T 5.54 | A 5.34 | V 5.79 | L 4.7
T1: H 3.57 | M 3.23 | L 4.35 | C 2.88 | K 3.31 | F 3.08
K8: L 3.38 | Y 3.26 | G 4.03 | T 3.45
E20: Y 4.2 | N 4.69 | D 4.02 | G 4.3 | I 4.38 | H 4.51
D9: V 2.9 | Y 2.64 | N 2.94 | C 2.46
S11: G 3 | R 2.92 | D 2.29 | Y 2.5 | H 3.01 | T 3.85
K16: Y 3.6 | D 4.2 | E 4.94 | F 3.85 | P 4.62 | M 3.85 | H 3.8
D7: I 2.3 | L 2.81 | V 3.52 | A 2.6 | M 2.82 | E 2.57 | R 2.35
K18: L 4.18 | H 4.03
P12: Q 3.79 | F 2.44 | I 3.21
E13: Q 3.34 | W 2.17 | R 2.82 | P 2.63
S14: R 3.82 | A 3.7 | C 3.52 | H 3.71 | T 3.41
N19: H 2.42 | Q 3.13 | W 3.46 | S 3.97 | E 4.23 | T 2.94 | I 4.02 | D 3.99
S6: R 2.75 | F 3.34 | G 3.62 | Y 2.82
S21: L 3.65 | M 4.36 | K 4.84
I23: C 2.89 | F 5.32 | T 3.33 | A 3.68
